In patent US20190271704:

Legend:
[1] = test system: T1, NE peptide substrate with acetylated N-terminal CKKK-PEG4 linker and C-terminal heptafluorobutylamine reporter (peptide-PFC)
T1 sequence: CKKKXXXX

[2] = test system: T2, NE peptide substrate with acetylated N-terminal CKKK-PEG4 linker and C-terminal pentafluoropropylamine reporter (peptide-PFC)
T2 sequence: CKKKXXXX

| Substance | PFC release from the peptide substrate (real-time vapor analysis mass spectrometry) [1] | PFC release from the peptide substrate (real-time vapor analysis mass spectrometry) [2] |
| --- | --- | --- |
| MMP9 | minimal cleavage by other proteases ... (MMP9 and MMP13 | minimal cleavage by other proteases ... (MMP9 and MMP13 |
| MMP13 | minimal cleavage by other proteases ... (MMP9 and MMP13 | minimal cleavage by other proteases ... (MMP9 and MMP13 |
